This experiment relates to M1 macrophages. In words: Recombinant GCSF / CXCL3 co-administered with M1-polarizing cytokines. The format is cell-based, human. As to the method:
For detection of M1 and M2 macrophage markers, cultured cells were suspended then blocked by 20 μL/10^4 of FcR Blocking Reagent (Miltenyi Biotec, Cologne, Germany). Antibodies listed in Table 1 and isotype signal for normalization were listed in Table 3 were used at 5 μL per 10^5 cells.
Cell lysates for immunoblotting were prepared using an M-PER mammalian protein extraction kit containing protease and phosphatase inhibitor cocktail (Thermo-Fisher Scientific). Immunoblotting using the indicated antibodies (listed in Table 1) was performed as described previously (Lu et al., J Immunother Cancer, 2020).
Next, experiments were performed to analyze whether the genes altered by ON101 treatment in diabetic wounds could be produced by ADPCs upon ON101 treatment and focused on candidate genes detected in wound tissues in ON101-treated db/db mice (FIGS. 4E-4F). […] To test whether GCSF and CXCL3 might be involved in the marker switch between M1 and M2 macrophages, recombinant GCSF and CXCL3 proteins, with or without their neutralizing antibodies, were co-administrated with M1-polarizing cytokines. […] Both GCSF- and CXCL3-mediated inductions of M2a/c markers were abolished by the corresponding neutralizing antibodies (FIGS. 8G-8H). In addition, both GCSF and CXCL3 treatments activated Stat3 signaling pathways, whereas GCSF activated Akt phosphorylation, which was again abolished by their corresponding antibodies (FIG. 8I).

Where [1] appears, read: recombinant protein with M1-polarizing cytokines, 48 h.

Turning to “CXCL3: recombinant CXCL3 protein co-administrated with M1-polarizing cytokines”, where the note is “immunoblot”, the Stat3 signaling entry was “activated”. Further, under setting [1], the CD163 expression entry is “only induced CD163 expression”.

B1: GCSF: recombinant GCSF protein co-administrated with M1-polarizing cytokines (protein, UniProt P09919 31-207, looked up)
Granulocyte …: TPLGPASSLPQSFLLKCLEQVRKIQGDGAALQEKLVSECATYKLCHPEELVLLGHSLGIPWAPLSSCPSQALQLAGCLSQLHSGLFLYQGLLQALEGISPELGPTLDTLQLDVADFATTIWQQMEELGMAPALQPTQGAMPAFASAFQRRAGGVLVASHLQSFLEVSYRVLRHLAQP
With B1, where the note is “immunoblot”, the Akt phosphorylation result is “activated” and the Stat3 signaling result is reported as “activated”. For the same molecule, under setting [1], the CD163 expression entry was “concentration-dependent increase” and the CD206 expression entry was “concentration-dependent increase”.

The values are drawn from patent US20230405070A1, “PLECTRANTHUS AMBOINICUS EXTRACT FOR USE IN INHIBITING IMMUNE RESPONSES” (Oneness Biotech Co., Ltd., priority 2022, published 2023).
